# Assay results reported in patent US20240400677A1 (ELECTRA THERAPEUTICS, published 2024).
# T1: cynomolgus monkey SIRPα on CHO cells (cynomolgus monkey, UniProt A0A2K5VYQ9 31-507)
# T1 construct: whole, on cells; also called Cyno SIRPα CHO
# T1 sequence: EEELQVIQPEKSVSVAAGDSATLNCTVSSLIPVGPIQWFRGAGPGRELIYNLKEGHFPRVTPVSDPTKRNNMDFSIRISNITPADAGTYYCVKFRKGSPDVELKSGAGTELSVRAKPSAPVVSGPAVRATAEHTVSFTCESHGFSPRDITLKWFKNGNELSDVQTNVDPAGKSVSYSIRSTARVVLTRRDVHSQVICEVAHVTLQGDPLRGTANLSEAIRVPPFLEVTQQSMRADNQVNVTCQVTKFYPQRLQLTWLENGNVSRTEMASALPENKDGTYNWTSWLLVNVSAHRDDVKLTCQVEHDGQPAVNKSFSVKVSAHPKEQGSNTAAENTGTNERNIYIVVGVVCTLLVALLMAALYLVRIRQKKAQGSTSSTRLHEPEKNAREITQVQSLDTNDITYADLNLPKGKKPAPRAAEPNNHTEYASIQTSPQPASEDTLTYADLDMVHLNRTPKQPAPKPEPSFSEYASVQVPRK
# T2: Cynomolgus Monkey SIRPγ (plate-coated extracellular domain)
# T2 construct: also called Cyno SIRPγ
# T2 extracellular domain: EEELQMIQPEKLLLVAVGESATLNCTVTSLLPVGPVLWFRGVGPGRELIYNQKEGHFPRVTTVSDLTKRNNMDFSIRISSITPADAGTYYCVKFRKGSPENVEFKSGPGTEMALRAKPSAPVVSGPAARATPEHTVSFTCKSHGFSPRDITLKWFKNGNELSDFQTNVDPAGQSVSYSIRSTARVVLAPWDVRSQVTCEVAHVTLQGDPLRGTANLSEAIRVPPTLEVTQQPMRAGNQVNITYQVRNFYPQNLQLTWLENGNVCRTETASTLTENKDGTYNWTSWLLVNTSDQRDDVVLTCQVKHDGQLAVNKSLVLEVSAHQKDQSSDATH
# Experiments:
# [1] = target: T1, cynomolgus monkey SIRPα on CHO cells; test: flow cytometry, CHO transfectants, anti-human IgG
# Procedure: (§1) Selected antibodies were tested for binding to stably transfected human SIRPγ, SIRPαV1, or SIRPβ1 (co-transfected with DAP12) Chinese hamster ovary (CHO) cells via flow cytometry. A titration of select antibodies was added to the cells and detected using a fluorescently labelled secondary anti-rat IgG antibody or anti-human IgG antibody. Graphs depict the median fluorescence intensity (MFI) at each concentration. FIGS. 5A and 5G show the binding curves of select antibodies to human SIRPγ, cynomolgus monkey SIRPγ, human SIRPα, cynomolgus monkey SIRPα, human SIRPβ1, or cynomolgus monkey SIRPβl-expressing CHO cells detected using an anti-rat IgG antibody. FIGS. 5B-5F and 5H-5L show the binding curves of select antibodies to human SIRPγ, cynomolgus monkey SIRPγ, human SIRPα, cynomolgus monkey SIRPα, human SIRPβ1, or cynomolgus monkey SIRPβ1-expressing CHO cells detected using an anti-human IgG antibody. […] For select antibodies, each myc-tagged SIRPγ scFv antibody as crude PPE was incubated with each of the SIRP-expressing cell lines stated above along with the parental CHO-K1 cell line. […] Fold change value <2.0 is considered a non-binder.
# [2] = target: T3, human SIRPβ1 on CHO cells (co-transfected with DAP12) (human, UniProt O00241 30-398); test: flow cytometry, CHO transfectants, anti-human IgG
# T3 construct: whole, on cells; co-transfected with DAP12; also called Human SIRPβ1 CHO
# Procedure: as §1
# [3] = target: T4, extracellular binding domain of human SIRPγ (plate-coated) (human, UniProt Q9P1W8 29-360); test: ELISA, coated SIRP ECD (2 µg/mL), anti-human IgG, luminescence
# T4 construct: also called hSIRPγ
# Procedure: (§2) Selected hybridoma supernatants of Example 1 were tested for binding to human SIRPγ, cynomolgus monkey SIRPγ, human SIRPα V1, cynomolgus monkey SIRPα, human SIRPβ1, and cynomolgus monkey SIRPβ1 by enzyme-linked immunosorbent assay (ELISA). Briefly, 2 μg/mL of the extracellular domain of SIRP protein was coated onto high protein-binding plates and blocked. Undiluted supernatants were added to coated plates. The antibodies were detected by an anti-rat antibody and a chemiluminescent substrate. […] The data depict the relative luminescence units read by a plate-reader capable of detecting chemiluminescence.
# (§3) FIGS. 2A-2G show binding curves of SIRPγ antibodies and human Fc isotype controls to human SIRPγ, cynomolgus monkey SIRPγ, human SIRPα V1, human SIRPα V2, and human SIRPβ1 by ELISA. […] Isotype control 2 was an unrelated human IgG1 antibody with irrelevant CDRs with no modifications in the Fc region. DNA was transiently transfected into Expi293F cells for 5 days. Antibodies were purified by Protein A from cell supernatants and analyzed in a titration via ELISA as previously described in FIG. 1 using an anti-human IgG antibody as the detection antibody.
# [4] = target: T2, Cynomolgus Monkey SIRPγ (plate-coated …); test: as above
# Procedure: as §2, §3
# T3 sequence (O00241 30-398): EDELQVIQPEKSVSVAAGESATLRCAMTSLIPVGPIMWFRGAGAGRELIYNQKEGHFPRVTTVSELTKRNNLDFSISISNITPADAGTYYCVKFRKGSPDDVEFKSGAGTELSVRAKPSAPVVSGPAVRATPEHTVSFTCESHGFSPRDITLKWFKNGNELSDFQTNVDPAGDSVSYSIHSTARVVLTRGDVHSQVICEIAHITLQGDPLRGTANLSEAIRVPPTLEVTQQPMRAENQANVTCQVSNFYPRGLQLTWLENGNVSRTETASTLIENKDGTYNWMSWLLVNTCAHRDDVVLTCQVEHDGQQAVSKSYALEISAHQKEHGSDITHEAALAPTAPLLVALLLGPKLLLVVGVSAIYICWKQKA
# T4 sequence (Q9P1W8 29-360 limits assumed): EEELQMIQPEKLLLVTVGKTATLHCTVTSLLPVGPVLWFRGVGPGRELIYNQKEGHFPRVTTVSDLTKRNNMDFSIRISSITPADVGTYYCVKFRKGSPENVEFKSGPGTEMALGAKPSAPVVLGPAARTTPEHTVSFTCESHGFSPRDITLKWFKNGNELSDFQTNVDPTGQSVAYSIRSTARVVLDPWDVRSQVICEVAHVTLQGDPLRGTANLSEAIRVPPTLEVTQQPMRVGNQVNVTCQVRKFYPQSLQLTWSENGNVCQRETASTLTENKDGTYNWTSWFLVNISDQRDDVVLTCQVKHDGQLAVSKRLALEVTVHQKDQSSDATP
Binder,binding result [1],binding result [2],EC50 (read off the curve) [3],EC50 (read off the curve) [4],binding result [4]
"Antibody 81 (antibody, V domains shown) VH: QVQLVQSGAEVKKPGASVKVSCKASGYTFTSYDINWVRQAPGQGLEWMGWISGYNGNTNYAQKFQGRVTMTRDTSTSTVYMELSSLRSEDTAVYYCARSFDWLLLLDYWGQGTLVTVSS VL: DIQMTQSPSSLSASVGDRVTITCRASQSISSWLAWYQQKPGKAPKLLIYDATTLESGVPSRFSGSGSGTDFTLTISSLQPEDFATYYCQQYDSYPWTFGQGTKLEIK",no binding (tested: about 20 µg/mL),no binding (tested: about 20 µg/mL),~0.02 µg/mL,~0.04 µg/mL,–
"Antibody 61 (antibody, V domains shown) VH: QVQLVQSGAEVKKPGASVKVSCKASGYTFTSHDINWVRQAPGQGLEWMGISNPSGGSTYYAQKFQGRVTMTRDTSTSTVYMELSSLRSEDTAVYYCASSRRYWNGAFDYWGQGTLVTVSS VL: not shown",–,–,–,–,binds
"Antibody 55 (antibody, V domains shown) VH: EVQLLESGGGLVQPGGSLRLSCAASGFTFSNSDMNWVRQAPGKGLEWVSYISSSGNTIYYADSVKGRFTISRDNSKNTLYLQMNSLRAEDTAVYYCARSNWNYPLDYYYMDVWGKGTTVTVSS VL: DIVMTQSPLSLPVTPGEPASISCRSSQSLLHSNGYNYLDWYLQKPGQSPQLLIYAASSLQSGVPDRFSGSGSGTDFTLKISRVEAEDVGVYYCMQGTHWPPTFGQGTKVEIK",no binding (tested: about 20 µg/mL),no binding (tested: about 20 µg/mL),~0.7 µg/mL,–,–
"Antibody 56 (antibody, V domains shown) VH: QVQLVQSGAEVKKPGASVKVSCKASGYTFTSYYMHWVRQAPGQGLEWMGWVDPNNGDTGYAQKFQGRVTMTRDTSTSTVYMELSSLRSEDTAVYYCARDNWGSLDVWGKGTTVTVSS VL: DIVMTQSPLSLPVTPGEPASISCRSSQSLLHSNGYNYLDWYLQKPGQSPQLLIYAASTLQSGVPDRFSGSGSGTDFTLKISRVEAEDVGVYYCMQGLQTLYSFGQGTKLEIK",–,no binding (tested: about 20 µg/mL),~0.7 µg/mL,~0.4 µg/mL,–
"Antibody 77 (antibody, V domains shown) VH: QVQLVQSGAEVKKPGASVKVSCKASGYTFTSYGISWVRQAPGQGLEWMGWISAYNGNTNYAQKFQGRVTMTRDTSTSTVYMELSSLRSEDTAVYYCARGTYYDYIWGSYRYSWFDYWGQGTLVTVSS VL: not shown",no binding (tested: about 20 µg/mL),no binding (tested: about 20 µg/mL),~0.02 µg/mL,~0.04 µg/mL,–

# The remaining lines, values ahead:
binding result [1],binding result [2],EC50 (read off the curve) [3],EC50 (read off the curve) [4],binding result [4],Binder
no binding (tested: about 20 µg/mL),no binding (tested: about 20 µg/mL),–,~0.1 µg/mL,–,"Antibody 66 (antibody, V domains shown) VH: QVQLVQSGAEVKKPGASVKVSCKASGGTFSSYAISWVRQAPGQGLEWMGIINPSSSSTGYAQKFQGRVTMTRDTSTSTVYMELSSLRSEDTAVYYCARAGYYDSSGYYYSPYYGMDVWGQGTTVTVSS VL: EIVMTQSPATLSVSPGERATLSCRASQSISGSYLAWYQQKPGQAPRLLIYGASTRATGIPARFSGSGSGTEFTLTISSLQSEDFAVYYCQQYGSFPFTFGPGTKVDIK"
no binding (tested: about 20 µg/mL),no binding (tested: about 20 µg/mL),~0.4 µg/mL,~0.7 µg/mL,–,"Antibody 74 (antibody, V domains shown) VH: QVQLVQSGAEVKKPGASVKVSCKASGGTFSNYGFSWVRQAPGQGLEWMGWMSPSSGNTGYAQKFQGRVTMTRDTSTSTVYMELSSLRSEDTAVYYCARERSGSYFDYWGQGTLVTVSS VL: EIVMTQSPATLSVSPGERATLSCRASQSVSSYLAWYQQKPGQAPRLLIYGTSTRATGIPARFSGSGSGTEFTLTISSLQSEDFAVYYCQQYGSLPFTFGQGTRLEIK"
no binding (tested: about 20 µg/mL),no binding (tested: about 20 µg/mL),~0.09 µg/mL,~0.1 µg/mL,–,"Antibody 76 (antibody, V domains shown) VH: QVQLVQSGAEVKKPGSSVKVSCKASGGTFSKIAVSWVRQAPGQGLEWMGLINPNSGGTDYAQKFQGRVTITADESTSTAYMELSSLRSEDTAVYYCAKDFRGGDYYYYGMDVWGQGTTVTVSS VL: EIVMTQSPATLSVSPGERATLSCRASQSVSSNLAWYQQKPGQAPRLLIYGASTRATGIPARFSGSGSGTEFTLTISSLQSEDFAVYYCQQYNTYPITFGQGTKVEIK"
no binding (tested: about 20 µg/mL),no binding (tested: about 20 µg/mL),~0.09 µg/mL,~0.1 µg/mL,–,"Antibody 58 (antibody, V domains shown) VH: QVQLVQSGAEVKKPGASVKVSCKASGYTFTAYYMHWVRQAPGQGLEWMGIINPSGGSTSYAQKFQGRVTMTRDTSTSTVYMELSSLRSEDTAVYYCARDSGWYAPGYYYGMDVWGQGTTVTVSS VL: DIQMTQSPSSLSASVGDRVTITCRASESISHWLAWYQQKPGKAPKLLIYGASTLQSGVPSRFSGSGSGTDFTLTISSLQPEDFATYYCQQSYTPPLTFGGGTKVEIK"
no binding (tested: about 20 µg/mL),no binding (tested: about 20 µg/mL),–,–,binds,"Antibody 62 (antibody, V domains shown) VH: QVQLVQSGAEVKKPGASVKVSCKASGGTFSNYDINWVRQAPGQGLEWMGWISAYNGNTNYAQKLQGRVTMTRDTSTSTVYMELSSLRSEDTAVYYCAAEAYGDYSLDPWGQGTLVTVSS VL: DIQMTQSPSSLSASVGDRVTITCQASQGISSYLNWYQQKPGKAPKLLIYAASSLQNGVPSRFSGSGSGTDFTLTISSLQPEDFATYYCQQSYSTPITFGQGTRLEIK"
no binding (tested: about 20 µg/mL),no binding (tested: about 20 µg/mL),–,–,binds,"Antibody 78 (antibody, V domains shown) VH: QVQLVQSGAEVKKPGASVKVSCKASGYTFTTYGISWVRQAPGQGLEWMGWMDPNSGSTGYAQKFQGRVTMTRDTSTSTVYMELSSLRSEDTAVYYCARGRGNSYYYYYMDVWGKGTTVTVSS VL: DIQMTQSPSSLSASVGDRVTITCRASQRIGSYLNWYQQKPGKAPKLLIYGASNLQSGVPSRFSGSGSGTDFTLTISSLQPEDFATYYCQQANSFPFTFGPGTKVDIK"
no binding (tested: about 20 µg/mL),no binding (tested: about 20 µg/mL),–,–,binds,"Antibody 67 (antibody, V domains shown) VH: QVQLVQSGAEVKKPGASVKVSCKASGYTFTNFDINWVRQAPGQGLEWMGWISAYNGHTNYAQNLQGRVTMTRDTSTSTVYMELSSLRSEDTAVYYCAQEAAAGYFDYWGQGTLVTVSS VL: DIQMTQSPSSLSASVGDRVTITCRASQDIRNDLAWYQQKPGKAPKLLIYDASNLETGVPSRFSGSGSGTDFTLTISSLQPEDFATYYCQQSYGTPYTFGQGTKLEIK"
